Three molecules from patent US20240376198A1 (INHIBRX, published 2024) can be followed below.

As usually defined, the Kd is a measure of binding affinity in units of concentration. Usually EC50 (read off the curve) stands for the concentration that produces a half-maximal response. A lower EC50 (read off the curve) goes with a more potent agent.

Read-outs that look alike come from different tables or passages of the source.

Assay [1] has as its target T1, human NKp46 (human, UniProt O76036 22-304).
T1 construct: also called CD335; NCR1
Description: flow cytometry, HEK293F cells transfected with human NKp46; Table 3 experiment; HEK-293 transfected with human NKp46. As for the experimental part: (§1) Binding of NKp46-binding polypeptides formatted as VHH-Fc fusion proteins was assessed by flow cytometry. An IgG1-Fc lacking a hinge, or a homodimeric Fc (FIG. 1I-1J) was used (the Fc lacking a hinge is annotated as Fc*). HEK293F cells were transiently transfected with a plasmid encoding full-length human NKp46, cynomolgus NKp46, or mouse NKp46, followed by an IRES and GFP. Transfected cells expressing NKp46 and GFP were used to measure binding of the polypeptides. The transfected cells were plated in a 96-well plate at 30,000 cells per well in FACS buffer (PBS, 1% BSA, 0.1% NaN₃, pH 7.4). Untransfected HEK293F cells were used as a NKp46-negative control and plated at 30,000 cells per well in a separate plate. Test polypeptides were then diluted to two times the final concentration of 1000 nM, and a 3-, 4-, or 5-fold, serial dilution was made. A final column was left with only FACS buffer as a secondary-only control. Test article dilutions were added to an equal volume of cells, and assay plates were incubated for 30 minutes at 4° C. […] After one additional wash with 150 μL of FACS buffer, bound antibody was detected by flow cytometry. […] NKp46 transfected cells were gated on as GFP positive, and polypeptide binding was measured as median fluorescence at 647 nm.
For orientation: Flow cytometry measures light scatter and fluorescence of single cells or particles in a stream.

The target in assay [2] is T2, cynomolgus NKp46 (cynomolgus monkey, UniProt Q95JB9 22-306).
T2 construct: also called cyno NKp46; cynomolgus monkey NKp46
Description: flow cytometry, HEK293F cells transfected with cyno NKp46. On the procedure:
(§2) Binding of NKp46-binding polypeptides formatted as VHH-Fc fusion proteins was assessed by flow cytometry. An IgG1-Fc lacking a hinge, or a homodimeric Fc (FIG. 1I-1J) was used (the Fc lacking a hinge is annotated as Fc*). HEK293F cells were transiently transfected with a plasmid encoding full-length human NKp46, cynomolgus NKp46, or mouse NKp46, followed by an IRES and GFP. Transfected cells expressing NKp46 and GFP were used to measure binding of the polypeptides. The transfected cells were plated in a 96-well plate at 30,000 cells per well in FACS buffer (PBS, 1% BSA, 0.1% NaN₃, pH 7.4). Untransfected HEK293F cells were used as a NKp46-negative control and plated at 30,000 cells per well in a separate plate. Test polypeptides were then diluted to two times the final concentration of 1000 nM, and a 3-, 4-, or 5-fold, serial dilution was made. A final column was left with only FACS buffer as a secondary-only control. Test article dilutions were added to an equal volume of cells, and assay plates were incubated for 30 minutes at 4° C. After washing twice with 150 μL. of FACS buffer per well, the cells were resuspended in FACS buffer with α-hFc-647 secondary diluted 1:1000-2000. Assay plates were then left to incubate at 4° C. for 20-30 minutes. After one additional wash with 150 μL of FACS buffer, bound antibody was detected by flow cytometry. Flow cytometric detection was performed on an Intellicyt iQue Plus or Accuri iQue. NKp46 transfected cells were gated on as GFP positive, and polypeptide binding was measured as median fluorescence at 647 nm.

Assay [3] has as its target T3, mouse NKp46 (mouse, UniProt Q8C567 17-325).
T3 construct: whole, on cells
T3 sequence (looked up): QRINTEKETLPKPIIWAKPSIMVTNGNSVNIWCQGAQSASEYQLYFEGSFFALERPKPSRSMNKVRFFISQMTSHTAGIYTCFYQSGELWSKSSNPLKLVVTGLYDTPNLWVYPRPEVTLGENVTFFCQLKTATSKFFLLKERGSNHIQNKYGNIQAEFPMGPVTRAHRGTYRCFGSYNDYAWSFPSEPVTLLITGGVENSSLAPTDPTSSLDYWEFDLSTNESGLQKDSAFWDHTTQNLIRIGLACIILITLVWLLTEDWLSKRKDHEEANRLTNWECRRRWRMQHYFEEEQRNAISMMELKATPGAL
Description: flow cytometry, HEK293F cells transfected with mouse NKp46. As for the experimental part:
as §2

Assay [4] has as its target T3, mouse NKp46. Described as above. On the procedure: as §2
The source holds these as a separate data set.

Assay [5] addresses T2, cynomolgus NKp46. Description: flow cytometry, HEK293F cells transfected with cyno NKp46. On the procedure: as §2
This is another data set of the same source.

Assay [6] concerns the target T1, human NKp46. Description: flow cytometry, HEK293F cells transfected with human NKp46. As for the experimental part:
as §2

In assay [7] the target is T1, human NKp46. The assay is described as above. As for the experimental part: as §2
The source holds these as a separate data set.

Assay [8] addresses T3, mouse NKp46. The experiment in a line: flow cytometry on HEK-293F cells transfected with full-length mouse NKp46, anti-hFc-647 secondary. On the procedure:
as §1

T1 sequence (O76036 22-304 Q82K): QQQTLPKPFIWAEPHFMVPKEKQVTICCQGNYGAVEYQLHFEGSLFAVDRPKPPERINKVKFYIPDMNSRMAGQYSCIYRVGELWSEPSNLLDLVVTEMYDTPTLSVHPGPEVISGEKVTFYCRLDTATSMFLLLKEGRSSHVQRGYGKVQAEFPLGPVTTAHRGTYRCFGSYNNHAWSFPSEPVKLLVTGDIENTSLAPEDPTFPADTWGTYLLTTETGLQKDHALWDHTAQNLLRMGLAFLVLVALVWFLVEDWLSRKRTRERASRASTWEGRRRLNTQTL
T2 sequence (Q95JB9 22-306 limits assumed): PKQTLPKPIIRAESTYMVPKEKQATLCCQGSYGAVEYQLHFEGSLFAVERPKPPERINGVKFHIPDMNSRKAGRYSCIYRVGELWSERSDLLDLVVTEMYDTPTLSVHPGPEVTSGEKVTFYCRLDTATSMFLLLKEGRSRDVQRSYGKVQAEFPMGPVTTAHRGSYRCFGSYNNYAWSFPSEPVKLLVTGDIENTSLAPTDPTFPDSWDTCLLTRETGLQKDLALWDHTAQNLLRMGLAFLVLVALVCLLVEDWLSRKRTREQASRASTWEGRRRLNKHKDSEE

B1: NKp46-hz5D7v3-Fc* (Fc fusion)
chain: EVQLVESGGGEVQPGGSLRLSCAASGRTFASAAMGWFRQAPGKEREFVAAISRSDDTYYAESVKGRFTISRDNAKNTVYLQMSSLRAEDTAVYYCAAVVPTYGNNIYVHSAAYNYWGQGTLVTVKPGGGGPSVFLFPPKPKDTLMISRTPEVTCVVVDVSHEDPEVKFNWYVDGVEVHNAKTKPREEQYNSTYRVVSVLTVLHQDWLNGKEYKCKVSNKALPAPIEKTISKAKGQPREPQVYTLPPSRDELTKNQVSLTCLVKGFYPSDIAVEWESNGQPENNYKTTPPVLDSDGSFFLYSKLTVDKSRWQQGNVFSCSVMHEALHNHYTQKSLSLSPG
notes: VHH-Fc fusion with an IgG1 Fc lacking a hinge (Fc*); also called NKp46-bz5D7v3-Fc*
As for B1, the dissociation constant (Kd) amounted to 0.511 nM in assay [1]; 0.726 nM in assay [2]; 0.313 nM in assay [3]; 0.685 nM in assay [4]; 0.773 nM in assay [5]; 0.177 nM in assay [6]. Besides, the “Bmax (MFI)” value in assay [2] was determined as 51800 MFI; in assay [3], 56500 MFI; in assay [4], 1.17e+06 MFI; in assay [5] it was 19800 MFI; in assay [6], 149000 MFI; in assay [7], 1.27e+06 MFI.

B2: NKp46-hz5D7v11-Fc* (Fc fusion)
chain: EVQLVESGGGEVQPGGSLRLSCAASGRTFASAAMGWFRQAPGKEREFVAAISRSDDTYYADSVKGRFTISRDNAKNTVYLQMSSLRAEDTAVYYCAAVVPTYGSNIYVYSAAYNYWGQGTLVTVKPGGGGPSVFLFPPKPKDTLMISRTPEVTCVVVDVSHEDPEVKFNWYVDGVEVHNAKTKPREEQYNSTYRVVSVLTVLHQDWLNGKEYKCKVSNKALPAPIEKTISKAKGQPREPQVYTLPPSRDELTKNQVSLTCLVKGFYPSDIAVEWESNGQPENNYKTTPPVLDSDGSFFLYSKLTVDKSRWQQGNVFSCSVMHEALHNHYTQKSLSLSPG
notes: VHH-Fc fusion with an IgG1 Fc lacking a hinge (Fc*)
B2: in assay [8], the “EC50 (read off the curve)” value is about 2 nM. For the same molecule, the “Bmax (MFI)” value is 52300 MFI in assay [2], 723000 MFI in assay [4] and 1.05e+06 MFI in assay [7]. The values for the Kd in assay [2], in assay [4] and in assay [7] were 1.84 nM, 1.7 nM and 0.189 nM, respectively.

B3: NKp46-hz5D7v14-Fc* (Fc fusion)
chain: EVQLVESGGGEVQPGGSLRLSCAASGRTFASAAMGWFRQAPGKEREFVAAISRSDDTYYAESVKGRFTISRDNAKNTVYLQMSSLRAEDTAVYYCAAVVPTYGSSIYVHSAAYNYWGQGTLVTVKPGGGGPSVFLFPPKPKDTLMISRTPEVTCVVVDVSHEDPEVKFNWYVDGVEVHNAKTKPREEQYNSTYRVVSVLTVLHQDWLNGKEYKCKVSNKALPAPIEKTISKAKGQPREPQVYTLPPSRDELTKNQVSLTCLVKGFYPSDIAVEWESNGQPENNYKTTPPVLDSDGSFFLYSKLTVDKSRWQQGNVFSCSVMHEALHNHYTQKSLSLSPG
notes: as for B2
For B3, in assay [8], the half-maximal effective concentration (EC50 (read off the curve)) is about 8 nM. Further, the entries for the “Bmax (MFI)” value in assay [3], in assay [5] and in assay [6] were 11300 MFI, 14300 MFI and 138000 MFI, respectively. Also, the Kd in assay [3] was found to be 6.51 nM; in assay [5], 0.252 nM; in assay [6], 0.158 nM.
